The record followed here is doi:10.1101/580043 (bioRxiv, 2019).

Assay [1] has as its target T1, Recombinant full-length MBP-tagged PRG-1 (C. elegans, UniProt P90786 1-824).
T1 sequence (looked up): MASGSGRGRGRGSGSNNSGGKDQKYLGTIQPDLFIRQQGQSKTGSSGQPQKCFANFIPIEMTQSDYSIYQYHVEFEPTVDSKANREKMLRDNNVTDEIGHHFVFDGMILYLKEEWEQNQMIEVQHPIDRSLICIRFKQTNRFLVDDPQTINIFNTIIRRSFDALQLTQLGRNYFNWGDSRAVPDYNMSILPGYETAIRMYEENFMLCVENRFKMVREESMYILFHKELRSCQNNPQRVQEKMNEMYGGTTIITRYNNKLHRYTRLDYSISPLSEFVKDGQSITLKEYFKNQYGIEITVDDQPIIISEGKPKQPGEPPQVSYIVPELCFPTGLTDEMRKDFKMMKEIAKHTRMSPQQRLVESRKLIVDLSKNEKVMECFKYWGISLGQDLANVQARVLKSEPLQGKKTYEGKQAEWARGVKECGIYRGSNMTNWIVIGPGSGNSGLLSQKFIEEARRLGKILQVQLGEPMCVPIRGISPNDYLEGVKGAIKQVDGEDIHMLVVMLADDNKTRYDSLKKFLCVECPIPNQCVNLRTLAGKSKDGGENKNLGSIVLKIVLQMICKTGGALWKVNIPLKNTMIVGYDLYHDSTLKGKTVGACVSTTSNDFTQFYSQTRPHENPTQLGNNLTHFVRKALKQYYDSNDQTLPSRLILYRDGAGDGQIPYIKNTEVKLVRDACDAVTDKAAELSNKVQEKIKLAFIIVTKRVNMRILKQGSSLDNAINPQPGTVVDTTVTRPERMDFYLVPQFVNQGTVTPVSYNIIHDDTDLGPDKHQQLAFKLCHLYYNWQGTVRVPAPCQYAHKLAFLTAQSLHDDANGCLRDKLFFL
The assay is described as follows: MST.

The target of assay [2] is MBP-tagged PRG-1 PIWI domain (C. elegans). Kind of assay: MST.

Where no end group is shown, it is not given here.

B1: Recombinant full-length MBP-tagged DEPS-1 (natural protein, C. elegans, UniProt Q9N303 1-619, looked up)
chain: MSERQSKYFDYQGIVISSTGQDNQDSETDLVYLIQAHGKAAPKNIMYGVSKCAFVPTNLERNFDNIEEAKNLERRSKIPLKFGEVILWNESDCDHDKRIILHIKREKPIYEASSSRNGLILKVGGVIQPTSTTSFWTPLCTVTMPETEATRAEPDVWLYAWIRFETTMKSGLDPFNMTATFESFDSCDPSDQARVCEAPWNAGSPDSKFGVWRPDPKPADSDDEIDIEPREGWHLPEDKWAEVIKMQLGLYVGERLLICKELSQFDFIIPLQKPFSRGTDKTLIYPAVGEYFHFSAIWSMQHNGFLIYELQPVPLLRQHVTSVNGNLLTRVVPASIRGLFVDKEGTLGLIDDPHHLLSFFEFHPAGYEFLKAMAEVRAVRTSENKSVRYRIVRTSGMSIFENWLRDTQFVVGPVKGIRINEDTVICAKHPNVYFKIPNNLKEGIPIGGGVQFVGKRQAGVDSEIMITECSPCPAFTCKNYSVSGDTRLFQVYLKPNCDHEQLAESDSMGFVDFRELETPCRGKFLAWVRESITVNDCRRAATIMEVCSTAICPPLIAMSANSSRATSARTTPAGSSIGSRSSIQSRASAATSVSSNRFVGPSSRRTPSGTPQSSTSSRV
modifications: labelled with atto-488 NHS ester
As to B1, in assay [1], the Kd (usually the constant that tells how readily two partners part at equilibrium) amounted to 855 nM. As to NFDNIEEAKNLERRSKIPLKFGEVILWNESDCDHDKRIIL (also: labelled with atto-488 NHS ester, site not given here) [DEPS-1 PBS motif peptide], binding in assay [2] was characterised by a dissociation constant (Kd) of 1900 nM.
